Molecular target: SITS-labeled human αB-crystallin wild type (human) (UniProt P02511)
Assay: FRET or BRET; in vitro subunit exchange: equal amounts (0.4 mg/ml) of SITS-labeled αB-wt (donor) and LYI-labeled αA-wt or mutant (acceptor) mixed at 37°C in 20 mM MOPS, 100 mM NaCl, pH 7.9; excitation 336 nm, rate constant k from the increase of acceptor emission at 515 nm, fit Ft/F0 = A1+A2e^-kt

LYI-labeled human αA-crystallin wild type, sequence (P02489 whole entry): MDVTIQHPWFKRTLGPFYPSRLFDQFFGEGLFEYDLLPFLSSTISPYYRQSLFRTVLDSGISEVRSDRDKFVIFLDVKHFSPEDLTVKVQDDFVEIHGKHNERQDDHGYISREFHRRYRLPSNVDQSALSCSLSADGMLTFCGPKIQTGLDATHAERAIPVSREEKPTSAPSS
SITS-labeled human αB-crystallin wild type (human), sequence (P02511 whole entry): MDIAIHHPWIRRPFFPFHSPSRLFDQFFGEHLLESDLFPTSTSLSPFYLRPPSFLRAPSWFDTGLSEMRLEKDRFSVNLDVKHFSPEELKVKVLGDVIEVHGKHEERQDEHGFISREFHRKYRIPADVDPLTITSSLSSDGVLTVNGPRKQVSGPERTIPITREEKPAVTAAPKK

k (rate constant of subunit exchange): 0.000657 S^-1
Substance: LYI-labeled human αA-crystallin wild type (from UniProt P02489 1-173) (natural protein)

Source: PMC3275625
